Consider nine molecules from US20110165066A1 (AbbVie / Abbott, published 2011).

Assay [1] concerns the target T1, human IL-13 wild type (human, UniProt P35225 35-146). Put plainly: cell-based or functional assay.
Assay [2] concerns the target human IL-13 variant (R130Q) (human, UniProt P35225 35-146). Put plainly: cell-based or functional assay.
Assay [3] concerns the target T1, human IL-13 wild type. Put plainly: cell-based or functional assay. The source holds these as a separate data set.
In assay [4] the target is T1, human IL-13 wild type. Put plainly: SPR (Biacore). The method, then:
(§1) The BIACORE assay (Biacore, Inc, Piscataway, N.J.) determines the affinity of antibodies with kinetic measurements of on-, off-rate constants. […] All chemicals were obtained from Biacore® AB (Uppsala, Sweden) or otherwise from a different source as described in the text. Approximately 5000 RU of goat anti-mouse IgG, (Fcγ), fragment specific polyclonal antibody (Pierce Biotechnology Inc, Rockford, Ill.) diluted in 10 mM sodium acetate (pH 4.5) was directly immobilized across a CM5 research grade biosensor chip using a standard amine coupling kit according to manufacturer's instructions and procedures at 25 μg/ml. Unreacted moieties on the biosensor surface were blocked with ethanolamine. Modified carboxymethyl dextran surface in flowcell 2 and 4 was used as a reaction surface. Unmodified carboxymethyl dextran without goat anti-mouse IgG in flow cell 1 and 3 was used as the reference surface. For kinetic analysis, rate equations derived from the 1:1 Langmuir binding model were fitted simultaneously to association and dissociation phases of all eight injections (using global fit analysis) with the use of Biaevaluation 4.0.1 software. Purified antibodies were diluted in HEPES-buffered saline for capture across goat anti-mouse IgG specific reaction surfaces. Mouse antibodies to be captured as a ligand (25 μg/ml) were injected over reaction matrices at a flow rate of 5 μl/min. The association and dissociation rate constants, kₒₙ (unit M⁻¹s⁻¹) and koff (unit s⁻¹) were determined under a continuous flow rate of 25 μl/min Rate constants were derived by making kinetic binding measurements at ten different antigen concentrations ranging from 10-200 nM. […] Binding is recorded as a function of time and kinetic rate constants are calculated.
(In general: SPR reads the build-up and loss of mass on a sensor chip optically.)

In assay [5] the target is T1, human IL-13 wild type. Kind of assay: cell-based or functional assay. The source holds these as a separate data set.
In assay [6] the target is T2, cynomolgus IL-13 (cynomolgus, UniProt Q0PW92 21-132). Kind of assay: cell-based or functional assay.
T2 sequence (Q0PW92 entry or part of it): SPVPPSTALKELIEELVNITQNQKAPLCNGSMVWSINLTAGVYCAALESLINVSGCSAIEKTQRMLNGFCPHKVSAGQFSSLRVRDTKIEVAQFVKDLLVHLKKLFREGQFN
In assay [7] the target is T3, rhesus IL-13 (rhesus, UniProt Q864V6 21-132, limits assumed). Kind of assay: cell-based or functional assay.
T3 sequence (Q864V6 21-132 limits assumed): as the sequence (Q0PW92 entry or part of it) above, with P5R, Q110R counted along it
Assay [8] concerns the target T2, cynomolgus IL-13. Put plainly: SPR (Biacore). As for the experimental part: as §1
For assay [9], the target named is T3, rhesus IL-13. Put plainly: SPR (Biacore). The method, then:
as §1

The target of assay [10] is T4, mouse IL-13 (mouse, UniProt P20109 26-131, limits assumed).
T4 construct: also called mIL-13; murine IL-13
T4 sequence (looked up): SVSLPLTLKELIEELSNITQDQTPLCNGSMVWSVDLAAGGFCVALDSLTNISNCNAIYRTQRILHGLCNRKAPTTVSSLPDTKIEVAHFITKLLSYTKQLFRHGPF
Kind of assay: BIACORE against recombinant mouse IL-13.

Assay [11] concerns the target T4, mouse IL-13. Put plainly: cell-based or functional assay.

Where two headings read alike, the source gives them in different places.

human IL-13 variant (R130Q), sequence (P35225 35-146 limits assumed, stated change not applied): as the sequence (Q0PW92 entry or part of it) above, with S1G, K10R, V42M, N67S, R83H, V100L counted along it
T1 sequence (P35225 other isoform, or with tags, fused parts or gaps limits assumed): as the sequence (Q0PW92 entry or part of it) above, with S1G, K10R, V42M, N67S, R83H, V100L, Q110R counted along it

B1: 5G1-Chim (antibody, V domains shown)
VH: QVQLQQSGAELARPGTSVKLSCKASGYTFTTYGVSWVKQRTGQGLEWIGEIYPGNYNTYYNEKFRGKATLTADKSSSTAYMQLSSLTSEDSAVYFCSRWRTSYFSDYGYFDYWGQGTTLTVSS
VL: DVVMTQTPLSLPVSLGDQASISCRSSQSLVHSHGNTYLHWYLQKPGQSPKLLIYTVSNRFSGVPDRFSGSGSGTDFTLKISRVEAEDLGVYFCSQSTHVPYTFGGGTKLEIKR
notes: also called chimeric 5G1
As usually defined, the Kd is the concentration at which binding is half-saturated. Usually koff stands for the rate constant with which the complex falls apart. For orientation: kon means the second-order rate constant of association. Read a high kon as faster complex formation. Turning to B1, in [1], the “Potency (IC50), A-549 bioassay” value is 0.0769 nM. For the same molecule, in assay [2], the “Potency (IC50), A-549 bioassay” value was 0.0692 nM. Further, in assay [3], the “Average IC50, IL-13-induced TARC production by A-549 cells” value (“Average IC50” for short) worked out at 0.041 nM. For the same molecule, in assay [4], the Kd came to 0.0417 nM, the koff worked out at 3.82e-05 s⁻¹ and the kon amounted to 915000 M⁻¹ s⁻¹.

B2: 9C11-Chim (antibody, human IgG1, V domains shown)
VH: QVRLQQPGAELVRPGASVKLSCKASGYTFTSSWIHWVNQRPGQGLEWIGMIHPSDSETRLNQKFKDKATLTVDKSSSTAYMQLSSPTSEDSAVYYCASTATDFDYWGQGTTLTVSS
VL: DVVLTQTPLSLPVNIGDQASISCRSTQTLLNSDGFTYLDWYLQKPGQSPQLLIYLVSNRFSGVPDRFSGSGSGTDFTLKISRVEAEDLGVYYCFQNNYLPLTFGAGTKLELKR
For B2, the “Average IC50” value in [3] amounted to 0.123 nM.

B3: 13C5.5L2EL3F (antibody, V domains shown)
VH: EVTLRESGPGLVKPTQTLTLTCTLYGFSLSTSDMGVDWIRQPPGKGLEWLAHIWWDDVKRYNPALKSRLTISKDTSKNQVVLKLTSVDPVDTATYYCARTVSSGYIYYAMDYWGQGTLVTVSS
VL: DIQMTQSPSSLSASVGDRVTISCRASQDIRNYLNWYQQKPGKAPKLLIFYTSMKPRGVPSRFSGSGSGTDYTLTISSLQPEDIATYYCQQGLTPPLTFGGGTKVEIK
notes: constant regions not restated for this variant
With B3, the figures for the “Potency (IC50), A-549 bioassay” value in [5], in assay [6] and in [7] were 0.12 nM, 0.48 nM and 0.26 nM, respectively. Besides, the equilibrium dissociation constant (Kd) was found to be 0.25 nM in assay [4], 0.32 nM in assay [8] and 0.13 nM in assay [9].

B4: 13C5.5L3F (antibody, V domains shown)
VH: EVTLRESGPGLVKPTQTLTLTCTLYGFSLSTSDMGVDWIRQPPGKGLEWLAHIWWDDVKRYNPALKSRLTISKDTSKNQVVLKLTSVDPVDTATYYCARTVSSGYIYYAMDYWGQGTLVTVSS
VL: DIQMTQSPSSLSASVGDRVTISCRASQDIRNYLNWYQQKPGKAPKLLIFYTSKLHSGVPSRFSGSGSGTDYTLTISSLQPEDIATYYCQQGLTPPLTFGGGTKVEIK
notes: The heavy chain row is printed 'VH 13C5.5L2F'
Take B4: the “Potency (IC50), A-549 bioassay” value amounted to 0.15 nM in [5], 0.46 nM in assay [6] and 0.14 nM in [7]. Besides, the results for the dissociation constant (Kd) in assay [4], in assay [8] and in assay [9] were 0.24 nM, 0.19 nM and 0.11 nM, respectively.

B5: 13C5.5L2E (antibody, V domains shown)
VH: EVTLRESGPGLVKPTQTLTLTCTLYGFSLSTSDMGVDWIRQPPGKGLEWLAHIWWDDVKRYNPALKSRLTISKDTSKNQVVLKLTSVDPVDTATYYCARTVSSGYIYYAMDYWGQGTLVTVSS
VL: DIQMTQSPSSLSASVGDRVTISCRASQDIRNYLNWYQQKPGKAPKLLIFYTSMKPRGVPSRFSGSGSGTDYTLTISSLQPEDIATYYCQQGNTLPLTFGGGTKVEIK
notes: as for B3
As for B5, the “Potency (IC50), A-549 bioassay” value worked out at 0.18 nM in assay [5], 1.2 nM in [6] and 0.4 nM in assay [7]. Besides, the Kd came out at 0.12 nM in assay [4], 0.52 nM in [8] and 0.29 nM in assay [9].

B6: 48D3 (antibody, V domains shown)
VH: EVQLVESGGDLVQPGRSLKLSCAASGFTFSDYYMAWVRQAPTKGLEWVASISNDGISTYYRDSVKGRFTISREKAKSSLYLQMDSLRSEDTATYYCTTWNWEFGFFDYWGQGVMVTVSA
VL: DIVLTQSPALAVSLGQRATISCRASQSVTISRYNRMHWYQQRPGQQPKLLIYRSSYLASGIPARFSGSGSGTDFTLTIYPVQADDIATYYCQQNRESPWTFGGGTKLELNR
Take B6: in [10], the Kd worked out at 0.105 nM. Also, in assay [11], the “IC50, A-549 bioassay against recombinant mouse IL-13” value worked out at 0.0491 nM.

B7: 13C5-Chim (antibody, human IgG1, V domains shown)
VH: QVTLKESGPGILQPSQTLSLTCSFSGFSLSTSDMGVDWIRQPSGKGLEWLAHIWWDDVKRYNPALKSRLTISKDTSSSQVFLMLASVDTADTATYYCARTVSSGYIYYAMDYWGQGTSVTVSS
VL: DIQMTQTASSLSASLGDRVTISCRASQDIRNYLNWYQRKPDGTVKLLIFYTSKLHSGVPSRFSGSGSGTDYSLTIRNLEQEDIATYFCQQGNTLPLTFGGGTKLEIKR
notes: also called chimeric 13C5
Regarding B7, in assay [1], the “Potency (IC50), A-549 bioassay” value is 0.107 nM. Also, in [2], the “Potency (IC50), A-549 bioassay” value is 0.037 nM. The “Average IC50” value in [3] was 0.191 nM. For the same molecule, in [4], the Kd came out at 0.0568 nM, the koff came to 9.65e-05 s⁻¹ and the kon amounted to 1.7e+06 M⁻¹ s⁻¹.

B8: 13C5.2 (antibody, human IgG1, V domains shown)
VH: EVTLKESGPVLVKPTETLTLTCTFSGFSLSTSDMGVDWIRQPPGKALEWLAHIWWDDVKRYNPALKSRLTISKDTSKSQVVLTMTNMDPVDTATYYCARTVSSGYIYYAMDYWGQGTTVTVSS
VL: DIQMTQTPSSLSASVGDRVTISCRASQDIRNYLNWYQRKPGKVVKLLIFYTSKLHSGVPSRFSGSGSGTDYTLTISSLQPEDVATYFCQQGNTLPLTFGGGTKVEIKR
notes: Humanized
Consider B8, for which the “Potency (IC50), A-549 bioassay” value in assay [1] came to 0.193 nM. Besides, the “Potency (IC50), A-549 bioassay” value in assay [2] amounted to 0.13 nM. Moreover, in assay [4], the Kd was found to be 0.0979 nM, the koff came to 0.000123 s⁻¹ and the on-rate (kon) worked out at 1.26e+06 M⁻¹ s⁻¹.

B9: 51D9 (antibody, V domains shown)
VH: QIQLVQSGPELKKPGESVKISCKASGYTFTDYAMHWVKQAPGKGLKWMAWINTYTGKPTYADDFKGRFVFSLEASASTATLQISNLKNEDTATYFCARAGRTEGTHYYAMDAWGQGTSVTVSS
VL: DIVLTQSPVLAVSLGQRATISCRASQSVSISSSDLMHWYQQRPGHQPKLLIYRTSNLVSGIPARFSGSGSGTDFTLTIDPVQADDIAAYYCQQGRESPWTFGGGTKLELKR
Regarding B9, the Kd in [10] is 0.145 nM. The “IC50, A-549 bioassay against recombinant mouse IL-13” value in assay [11] was 0.343 nM.
